Assay results reported in PMC12680531.
Where a chain is given by its changes, count along the chain named. Names may count otherwise. One block for each binder: values may come before it.

Target: T1, cell surface TM4SF4 of human cancer cell lines, P48230
T1 chain: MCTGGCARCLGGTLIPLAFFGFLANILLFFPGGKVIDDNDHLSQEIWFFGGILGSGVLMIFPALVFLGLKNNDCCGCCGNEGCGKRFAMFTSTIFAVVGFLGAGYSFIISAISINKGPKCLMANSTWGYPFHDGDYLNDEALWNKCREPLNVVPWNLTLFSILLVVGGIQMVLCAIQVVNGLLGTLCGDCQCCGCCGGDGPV
Experiment: flow cytometry on cells
Settings: chain shown with the change, n = 3, parent: est. 100, read off a plot

- percent of parent (A549 cells): 97%
- percent of parent (Calu-3 cells): 87%
B1: humanized 2B7 antibody Hz2B7-1.1 L:N31V (protein)
chain 1: EITLKESGPTLVKPTQTLTLTCTFSGFSLSTYGIGVSWIRQPPGKALEWLAHIWWNDNKYYNTALKSRLTITKDTSKNQVVLTMTNMDPVDTATYYCARKEGSSAPFAYWGQGTLVTVSS
chain 2: DIVMTQSPDSLAVSLGERATINCKSSQSLLVSSNQKNYLAWYQQKPGQPPKLLIYFASTRESGVPDRFSGSGSGTDFTLTISLMQAEDVAVYYCQQHYRTPPTFGQGTKVEIK

- percent of parent (A549 cells): 130%
- percent of parent (Calu-3 cells): 100%
B2: humanized 2B7 antibody Hz2B7-1.1 L:N31F (protein)
chain 1: B1 chain 1
chain 2: B1 chain 2 with V31F
